One experiment deals with T1, peptide 4A.8 (human, cysteine pairing not given here).
T1 construct: 15-mer of human MS4A4A
T1 peptide: Biotin-HHPYCNYYGNSNNCH
The experiment in a line: array SPR, peptide on streptavidin chip. The method, then:
(§1) Epitope binding characteristics of anti-MS4A4A antibodies are determined by two complementary approaches. First, a panel of overlapping peptides derived from the extracellular loops (ECLs) of human MS4A4A (SEQ ID NO:1) and human MS4A6A (SEQ ID NO: 291) were synthesized by JPT peptides (Berlin, Germany). These peptides were 15 amino acids in length, each offset by 2 amino acids. The peptides were biotinylated on the N-terminus. […] Anti-MS4A4A antibodies of the present disclosure and commercially-available anti-MS4A4A antibodies were tested for binding to the various linear peptides by Carterra (South San Francisco, Calif., USA) using a proprietary array SPR instrument (MX-96).
(§2) The peptide library was printed onto a streptavidin-coated chip (Xantec SAD50M, Dusseldorf, Germany) using the Continuous Flow Microspotter (CFM). First, the chip was activated with 100 mM MES, pH 5.5, 100 μL EDC (133 mM final), 100 μL of S-NHS (33.3 mM final). The peptide library was immobilized onto the chip at 250 nM per peptide diluted into HBS-EP+buffer (Teknova Cat # H8022) with 1 mg/ml BSA and 1 μg/ml mouse IgG-Biotin. Following immobilization, the chip surface was deactivated with 1M ethanolamine at pH 8.5 for 10 minutes. Hybridoma supernatants and purified anti-MS4A4A antibodies were diluted in HBS-EP+buffer with 1 mg/ml BSA and injected onto the chip. Duplicate measurements for each anti-MS4A4A antibody were taken to ensure reproducibility. Binding characteristics were determined for each peptide-antibody combination, allowing the mapping of the linear peptide region each antibody interacts with.

A further experiment addresses T2, peptide 4A.11 (human).
T2 construct: 15-mer of human MS4A4A
T2 peptide: Biotin-YYGNSNNCHGTMSIL
The experiment in a line: array SPR, peptide on streptavidin chip. On the procedure: as §1, §2

The next experiment deals with T3, peptide 4A.9 (human, cysteine pairing not given here).
T3 construct: 15-mer of human MS4A4A
T3 peptide: Biotin-PYCNYYGNSNNCHGT
The experiment in a line: array SPR, peptide on streptavidin chip. The method, then:
as §1, §2

Another experiment concerns the target T4, peptide 4A.1 (human).
T4 construct: 15-mer of human MS4A4A
T4 peptide: Biotin-ITMMCMASNTYGSNP
The experiment in a line: array SPR, peptide on streptavidin chip. On the procedure: as §1, §2

In a further experiment the target is T5, peptide 4A.10 (human, cysteine pairing not given here).
T5 construct: 15-mer of human MS4A4A
T5 peptide: Biotin-CNYYGNSNNCHGTMS
The experiment in a line: array SPR, peptide on streptavidin chip. On the procedure: as §1, §2

Another experiment has as its target T6, peptide 4A.3 (human).
T6 construct: 15-mer of human MS4A4A
T6 peptide: Biotin-CMASNTYGSNPISVY
Nature of the experiment: array SPR, peptide on streptavidin chip. The method, then:
as §1, §2

The target of another experiment is T7, peptide 4A.12 (human).
T7 construct: 15-mer of human MS4A4A
T7 peptide: Biotin-GNSNNCHGTMSILMG
The experiment in a line: array SPR, peptide on streptavidin chip. The method, then: as §1, §2

For another experiment, the target named is T8, peptide 4A.2 (human).
T8 construct: 15-mer of human MS4A4A
T8 peptide: Biotin-MMCMASNTYGSNPIS
Nature of the experiment: array SPR, peptide on streptavidin chip. On the procedure: as §1, §2

The target in another experiment is T9, peptide 4A.5 (human).
T9 construct: 15-mer of human MS4A4A
T9 peptide: Biotin-LAFYSFHHPYCNYYG
Nature of the experiment: array SPR, peptide on streptavidin chip. On the procedure: as §1, §2

Another experiment has as its target T10, peptide 4A.7 (human).
T10 construct: 15-mer of human MS4A4A
T10 peptide: Biotin-SFHHPYCNYYGNSNN
Nature of the experiment: array SPR, peptide on streptavidin chip. The method, then:
as §1, §2

In a further experiment the target is T11, peptide 4A.6 (human).
T11 construct: 15-mer of human MS4A4A
T11 peptide: Biotin-FYSFHHPYCNYYGNS
The experiment in a line: array SPR, peptide on streptavidin chip. The method, then:
as §1, §2

In another experiment the target is T12, peptide 4A.4 (human).
T12 construct: 15-mer of human MS4A4A
T12 peptide: Biotin-ASNTYGSNPISVYIG
Nature of the experiment: array SPR, peptide on streptavidin chip. The method, then:
as §1, §2

In another experiment the target is T13, cynomolgus (cyno) MS4A4A (cynomolgus).
T13 construct: also called cy4A; Cyno 4A
The experiment in a line: FACS, HEK293, supernatant. A general note: In flow cytometry, cells or beads pass a laser one at a time.

Experiment [1] addresses T14, human MS4A4A ECL1 peptide (amino acid residues 86-98) (human).
T14 construct: synthetic peptide
T14 peptide: CMASNTYGSNPIS
Nature of the experiment: peptide ELISA. Put shortly: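 Free or BSA-conjugated peptides were coated at 2 or 10 […] in 0.05M carbonate buffer, pH 9.6, overnight at 4 °C, then blocked 1 h with PBS+0.5% BSA+0.05% Tween20. Antibodies were bound 30 min at room temperature with shaking. TMB was developed 5-10 min, stopped, and absorbance read at 650 nm.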
(ELISA stands for enzyme-linked immunosorbent assay.)

Experiment [2] deals with T15, human MS4A4A ECL2 peptide (amino acid residues 159-179), free (human).
T15 construct: synthetic peptide; also called huMS4A4A-ELC2 free-peptide
T15 peptide: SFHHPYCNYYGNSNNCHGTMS
Nature of the experiment: array SPR (Carterra MX-96), antibody captured, peptide in solution. The method, then:
Binding kinetic characterization of the anti-MS4A4A antibodies to MS4A4A ECL1 and ECL2 and to MS4A6A ECL1 and ECL2 peptides was performed by Carterra (South San Francisco, Calif.) using a proprietary array Surface Plasmon Resonance (SPR) instrument (MX-96) as follows. Antibodies were captured onto a CMD500D chip (Xantec # SPMX CMD500D) using the Continous Flow Microspotter (CFM). First, the chip was activated with 100 mM MES pH 5.5, 100 μL EDC (133 mM final), 100 μL of S-NHS (33.3 mM final), for 7 minutes. […] Anti-MS4A4A hydridoma supernatant or purified anti-MS4A4A antibodies were diluted in HBS-EP+ buffer (Teknova Cat # H8022) and then printed as duplicates with a 20 minute and a 5-minute print from the same sample solution.
These were then injected on the chip for five minutes, followed by a seven-minute dissociation period at 8 uL per second in a non-regenerative kinetic series. Duplicate measurements for each anti-MS4A4A antibody were taken to ensure reproducibility. Association rates (Kon) and dissociation rates (Koff) were calculated using a single one-to-one Langmuir binding model. The equilibrium dissociation constant (KD) was calculated as the ration of Koff/Kon.

The next experiment has as its target human MS4A4A (human, UniProt Q96JQ5 1-239). Nature of the experiment: FACS, U937 cells, supernatant; U937 cells overexpressing h4A, ratio over parental U937; parental U937 itself scores +. On the procedure: Positive clones identified in Example 22 above were expanded and then rescreened for specificity against U937, K562, and/or 300.19 cells stably overexpressing human MS4A4A or cyno MS4A4A and parental U937, K562, and/or 300.19 cells. These experiments were performed using supernatants from hybridoma clones which had undergone further expansion after initial selection. Briefly, stably transfected cells were labeled with LIVE/DEAD Fixable Aqua Dead Cell Stain Kit (ThermoFisher Scientific Cat#L34957) on ice for 30 minutes. […] 2×10⁵ cells were aliquoted per well in 96-well U-bottom plates and incubated with 50 μl of culture supernatant on ice for 30 minutes. […] Following this secondary incubation, the cells were again washed twice with ice-cold FACS buffer and resuspended in a final volume of 200 μl of FACS buffer. Analysis was performed on a FACS Canto system (BD Biosciences), with gates drawn to exclude dead (Aqua-positive) cells.
The APC ratio was calculated for each antibody as follows. […] For cell lines overexpressing human MS4A4A (h4A) or cyno MS4A4A (cy4A), the ration was calculated by comparing the binding measured to the binding observed on the corresponding parental cell lines.

The target in experiment [3] is T15, human MS4A4A ECL2 peptide (amino acid …). The experiment in a line: peptide ELISA, supernatant.

Ends that are not written are not given here. * marks the point of attachment. Biotin = O=C1N[C@H]2[C@H](CS[C@H]2CCCCC(=O)*)N1

B1: anti-MS4A4A antibody 4A-21 (murine) (antibody, IgG1, V domains shown)
VH: QIQLVQSGPELKKPGETVKISCKASGYIFTSYGLSWVKQTPGKGLKWMGWINTYSGVPTYANDFKGRFAFSLETSASTTYLRINNLKNDDTATYFCARSLVDYWGQGTPLTVSS
VL: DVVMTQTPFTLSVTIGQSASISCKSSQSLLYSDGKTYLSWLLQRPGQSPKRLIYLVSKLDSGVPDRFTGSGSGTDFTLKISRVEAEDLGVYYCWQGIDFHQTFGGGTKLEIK
notes: murine hybridoma antibody, msIgG1; also called 4A-21 (msIgG1)
As for B1, the SPR binding signal was 309 in the experiment with peptide 4A.8; -6.5 with peptide 4A.11; 225 with peptide 4A.9; -11.2 with peptide 4A.1; -4.5 with peptide 4A.10; -10.6 with peptide 4A.3. The SPR binding signal with peptide 4A.12 was -5.2; with peptide 4A.2, -11.5; in the experiment with peptide 4A.5, 383; with peptide 4A.7 it was 446; with peptide 4A.6, 486; with peptide 4A.4, -7.9. In addition, in the experiment with cynomolgus (cyno) MS4A4A, the “Cyno 4A:parental cell ratio” value was 1.31 ratio. For the same molecule, in experiment [1], the binding result is “no binding”. Also, the Kd (as a rule, a measure of binding affinity in units of concentration) in [2] stood at 31 nM. Moreover, the off-rate constant (koff) (usually a measure of how fast the partners let go of each other) in experiment [2] was 0.0078 s⁻¹. Besides, in experiment [2], the kon (in general, a measure of how fast the partners come together) worked out at 250000 M⁻¹ s⁻¹.

B2: anti-MS4A4A antibody 4A-219 (murine) (antibody, V domains shown)
VH: QVQMKQSGPGLVQPSQSLSITCTVSGFSLTSYGVHWVRQSPGKGLEWLGVIWSGGSTDYNAAFISRLSISKDNSKSQVFFKMNSLQADDTAIYYCVRLYYGYDGFAYWGQGTLVTVSS
VL: DIVMTQSHKFMSTSVGDRVSITCKASQDVSTAVAWYQQKPGQSPKLLIYSASYRYTGVPDRFTGSGSGTDFTFTISSVQAEDLAVYYCQQHYSTPLTFGAGTKLELK
notes: murine hybridoma antibody
Consider B2, for which the “fold increase in MFI” value in the experiment with human MS4A4A was more than 2 fold. The binding result in [1] and in experiment [3] was “no binding” in each case.

Source of the values: patent US20230126400A1 (Alector, published 2023).
